Results taken from publication PMC9902533, “Direct digital sensing of protein biomarkers in solution”.

Experiments:
[1] = target: CD63 on exosomes (human? (MDA-MB-231 breast cancer cell …, UniProt P08962 2-238)); assay: microchip free-flow electrophoresis, single-particle counting (DigitISA); 5, 50, 100 nM aptamer; isolated exosomes; 10 mM HEPES pH 7.4, 0.05% Tween-20, room temperature (IgE; fibrils and exosomes same buffer); FUS: 50 mM Tris-HCl pH 7.4, 25 mM KCl, 0.02% Tween-20, on-chip desalting; oligomers: from PBS pH 7.4, on-chip desalting; conditions: protein: native; tags: none; label: fluorescent label, not specified
[2] = target: FUS-SNAP (UniProt P35637 1-526); assay: microchip free-flow electrophoresis (DigitISA); 700 nM aptamer, 2 uM FUS, condensates present; monomer-bound vs free; 10 mM HEPES pH 7.4, 0.05% Tween-20, room temperature (IgE; fibrils and exosomes same buffer); FUS: 50 mM Tris-HCl pH 7.4, 25 mM KCl, 0.02% Tween-20, on-chip desalting; oligomers: from PBS pH 7.4, on-chip desalting; conditions: protein: recombinant; tags: SNAP; label: 3'-Atto488
[3] = target: alpha-synuclein oligomers (human, UniProt P37840 1-140); assay: microchip free-flow electrophoresis, single-molecule counting (DigitISA); 100 nM aptamer; complex 32.7 pM; 10 mM HEPES pH 7.4, 0.05% Tween-20, room temperature (IgE; fibrils and exosomes same buffer); FUS: 50 mM Tris-HCl pH 7.4, 25 mM KCl, 0.02% Tween-20, on-chip des

Sequence of FUS-SNAP (P35637 whole entry): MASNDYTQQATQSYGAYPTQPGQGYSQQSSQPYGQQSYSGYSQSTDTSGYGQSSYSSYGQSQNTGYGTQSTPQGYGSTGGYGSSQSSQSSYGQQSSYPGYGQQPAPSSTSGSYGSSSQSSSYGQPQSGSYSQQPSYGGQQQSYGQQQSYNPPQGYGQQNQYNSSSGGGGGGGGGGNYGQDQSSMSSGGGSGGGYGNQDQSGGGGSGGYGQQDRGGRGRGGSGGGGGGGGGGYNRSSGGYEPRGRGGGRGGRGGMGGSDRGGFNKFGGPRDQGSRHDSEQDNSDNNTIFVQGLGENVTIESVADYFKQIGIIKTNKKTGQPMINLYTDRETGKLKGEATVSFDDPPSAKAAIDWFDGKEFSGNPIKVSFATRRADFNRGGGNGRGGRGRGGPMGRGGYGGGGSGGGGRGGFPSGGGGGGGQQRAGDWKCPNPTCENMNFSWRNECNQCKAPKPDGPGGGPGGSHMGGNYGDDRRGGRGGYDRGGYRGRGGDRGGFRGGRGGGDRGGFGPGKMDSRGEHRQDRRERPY
Sequence of CD63 on exosomes (human? (P08962 2-238): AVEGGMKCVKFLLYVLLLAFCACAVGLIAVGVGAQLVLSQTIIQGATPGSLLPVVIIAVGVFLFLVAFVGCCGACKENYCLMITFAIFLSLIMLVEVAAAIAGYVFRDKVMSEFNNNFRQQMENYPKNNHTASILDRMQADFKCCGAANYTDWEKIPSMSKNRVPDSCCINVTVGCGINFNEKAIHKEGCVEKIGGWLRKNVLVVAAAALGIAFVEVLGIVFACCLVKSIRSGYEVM

B1: CD63 aptamer (structured_DNA)
DNA: CACCCCACCTCGCTCCCGTGACACTAATGCTA
B1: binds [1].

B2: GGUG RNA aptamer (ssRNA)
RNA: UUGUAUUUUGAGCUAGUUUGGUGAC
B2 gave a Kd [2] of 280 ± 20 nM.

B3: T-SO606 aptamer (structured_DNA)
DNA: TTTTGGGTCGGCTGTCCGTGGGTGGGGA
B3: binds [3].
